Test [1] has as its target T1, purified recombinant HA protein of H1N1 (A/California/04/09) (Influenza A virus A/California/04/09 …, UniProt P26140 18-529).
The target of test [2] is T1, purified recombinant HA protein of H1N1 …. In words: SPR, Biacore T200, HA captured via anti-6x his tag antibody, 25 C. In general terms: Surface plasmon resonance follows binding to a sensor surface in real time, without labels.

Values joined by “and” are separate entries in the source; they are usually repeats but may differ in a detail not shown here. Equal entries are not always repeated. Where two headings read alike, the source gives them in different places.

What is called Kd is a measure of binding affinity in units of concentration. The koff is the rate constant with which the complex falls apart. In general, kon refers to the second-order rate constant of association.

B1: CT149 (antibody, V domains shown)
VH: QVQLVQSGAEVKKPGASVKVSCKTSGYSFSTYGVSWVRQAPGQGPEWVGWISAYTGITDYAQKFQGRVTLTTDATTATAFLDLRSLRPDDTATYFCARDKVQGRVEVGSGGRHDYWGQGTLVIVSS
VL: EVVLTQSPGTLALPPGERATLSCRASHRVGSTYIAWYQQKSGQAPRRLIYGASNRATDIPDRFSGSGSGTDFTLTIRRLEPEDSAVYYCQQFSVSPWTFGQGTRVEIKR
Take B1: the Kd in test [1] was 30.6 nM. In test [2], the Kd was 30.2 nM and 31 nM; the off-rate constant (koff) is 0.0388 s⁻¹ and 0.0399 s⁻¹; the kon was 1.29e+06 M⁻¹ s⁻¹.

Values taken from US20160052997A1 (CELLTRION, published 2016).
